The values below come from US20220363757A1 (SYMPHOGEN A S, published 2022).

For assay [1], the target named is T1, human LAG-3 ECD human IgG1 Fc fusion (human, UniProt P18627 23-450).
T1 construct: not shown: human IgG1 Fc, AA P101-K330
T1 sequence: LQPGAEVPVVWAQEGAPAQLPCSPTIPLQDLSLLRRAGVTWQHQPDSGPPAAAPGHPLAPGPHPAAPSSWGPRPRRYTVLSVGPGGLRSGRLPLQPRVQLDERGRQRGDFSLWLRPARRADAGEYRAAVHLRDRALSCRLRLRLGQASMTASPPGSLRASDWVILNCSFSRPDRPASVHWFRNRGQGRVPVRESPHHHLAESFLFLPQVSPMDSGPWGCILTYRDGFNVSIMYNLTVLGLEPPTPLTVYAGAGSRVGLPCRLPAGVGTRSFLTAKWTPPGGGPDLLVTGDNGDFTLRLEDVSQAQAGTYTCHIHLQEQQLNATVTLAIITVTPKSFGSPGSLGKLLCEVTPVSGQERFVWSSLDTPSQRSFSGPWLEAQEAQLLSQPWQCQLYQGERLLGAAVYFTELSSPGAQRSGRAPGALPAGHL
Nature of the assay: SPR, Fab over captured LAG-3 ECD-Fc. In general terms: In SPR one partner is held on a chip, and binding of the other changes the refractive index at the surface.

For assay [2], the target named is T2, human LAG-3 domain 1-2 Fc fusion, chimeric construct #3 (mutated region AA 40-41) (human, UniProt P18627 23-266).
T2 construct: not shown: human IgG1 Fc, AA P101-K330
T2 chain: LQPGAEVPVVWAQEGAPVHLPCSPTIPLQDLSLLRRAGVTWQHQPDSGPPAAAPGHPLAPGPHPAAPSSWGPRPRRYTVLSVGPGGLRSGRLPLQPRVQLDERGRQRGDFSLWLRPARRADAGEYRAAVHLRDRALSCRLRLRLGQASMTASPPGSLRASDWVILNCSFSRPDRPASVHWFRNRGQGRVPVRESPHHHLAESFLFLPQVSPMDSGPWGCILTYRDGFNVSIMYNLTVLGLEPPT
Kind of assay: SPR, Fab over captured mutant LAG-3-Fc.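 Also: LAG-3 fusion proteins captured on an anti-human IgG Fc sensor chip and read on an IBIS MX96 biosensor, Fab association and dissociation each 15 min.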

For assay [3], the target named is T3, human LAG-3 domain 1-2 Fc fusion, chimeric construct #5 (mutated region AA 46-51) (human, UniProt P18627 23-266).
T3 construct: not shown: human IgG1 Fc, AA P101-K330
T3 chain: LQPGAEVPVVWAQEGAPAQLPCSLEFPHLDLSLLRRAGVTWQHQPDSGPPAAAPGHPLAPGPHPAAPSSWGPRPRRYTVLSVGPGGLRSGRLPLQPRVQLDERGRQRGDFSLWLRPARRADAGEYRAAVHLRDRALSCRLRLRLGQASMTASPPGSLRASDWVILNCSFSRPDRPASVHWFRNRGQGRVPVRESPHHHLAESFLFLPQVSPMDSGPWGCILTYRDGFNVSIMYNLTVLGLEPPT
Kind of assay: SPR, Fab over captured mutant LAG-3-Fc.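 Also: LAG-3 fusion proteins captured on an anti-human IgG Fc sensor chip and read on an IBIS MX96 biosensor, Fab association and dissociation each 15 min.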

Assay [4] concerns the target T4, human LAG-3 domain 1-2 Fc fusion, chimeric construct #6 (mutated region AA 48-55) (human, UniProt P18627 23-266).
T4 construct: not shown: human IgG1 Fc, AA P101-K330
T4 chain: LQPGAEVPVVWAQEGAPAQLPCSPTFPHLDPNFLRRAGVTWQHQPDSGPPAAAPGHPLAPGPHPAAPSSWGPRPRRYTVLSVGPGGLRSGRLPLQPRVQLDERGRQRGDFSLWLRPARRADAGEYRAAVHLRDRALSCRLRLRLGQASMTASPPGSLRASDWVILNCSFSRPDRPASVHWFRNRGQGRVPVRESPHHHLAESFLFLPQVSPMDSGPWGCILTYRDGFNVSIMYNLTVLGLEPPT
Kind of assay: SPR, Fab over captured mutant LAG-3-Fc.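 Also: LAG-3 fusion proteins captured on an anti-human IgG Fc sensor chip and read on an IBIS MX96 biosensor, Fab association and dissociation each 15 min.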

In assay [5] the target is T5, human LAG-3 domain 1-2 Fc fusion, chimeric construct #8 (mutated region AA 59-66) (human, UniProt P18627 23-266).
T5 construct: not shown: human IgG1 Fc, AA P101-K330
T5 chain: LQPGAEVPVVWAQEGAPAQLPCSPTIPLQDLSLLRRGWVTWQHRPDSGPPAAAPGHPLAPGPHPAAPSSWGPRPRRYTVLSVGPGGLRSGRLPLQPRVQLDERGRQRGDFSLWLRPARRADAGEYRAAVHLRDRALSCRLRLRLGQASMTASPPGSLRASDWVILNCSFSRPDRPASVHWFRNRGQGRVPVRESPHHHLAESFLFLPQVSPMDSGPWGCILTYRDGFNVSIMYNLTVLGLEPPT
Kind of assay: SPR, Fab over captured mutant LAG-3-Fc.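 Also: LAG-3 fusion proteins captured on an anti-human IgG Fc sensor chip and read on an IBIS MX96 biosensor, Fab association and dissociation each 15 min.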

Assay [6] concerns the target T6, human LAG-3 domain 1-2 Fc fusion, chimeric construct #9 (mutated region AA 66-71) (human, UniProt P18627 23-266).
T6 construct: not shown: human IgG1 Fc, AA P101-K330
T6 chain: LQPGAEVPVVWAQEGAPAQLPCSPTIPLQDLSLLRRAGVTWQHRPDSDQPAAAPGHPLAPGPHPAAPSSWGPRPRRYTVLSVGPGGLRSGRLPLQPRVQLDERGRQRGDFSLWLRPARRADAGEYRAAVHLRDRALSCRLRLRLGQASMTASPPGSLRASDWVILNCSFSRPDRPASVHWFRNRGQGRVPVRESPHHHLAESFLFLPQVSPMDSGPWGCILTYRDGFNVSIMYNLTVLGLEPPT
Kind of assay: SPR, Fab over captured mutant LAG-3-Fc.

The target in assay [7] is T7, human LAG-3 domain 1-2 Fc fusion, chimeric construct #11 (mutated region AA 74-82) (human, UniProt P18627 23-266).
T7 construct: not shown: human IgG1 Fc, AA P101-K330
T7 chain: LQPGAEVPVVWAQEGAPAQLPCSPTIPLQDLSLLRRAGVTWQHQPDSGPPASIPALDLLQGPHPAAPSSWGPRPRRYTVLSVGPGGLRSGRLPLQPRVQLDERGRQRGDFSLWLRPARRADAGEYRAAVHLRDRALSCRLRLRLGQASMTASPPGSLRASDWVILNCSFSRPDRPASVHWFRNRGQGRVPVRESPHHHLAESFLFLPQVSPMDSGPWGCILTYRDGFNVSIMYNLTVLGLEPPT
Nature of the assay: SPR, Fab over captured mutant LAG-3-Fc.

Assay [8] has as its target T8, human LAG-3 domain 1-2 Fc fusion, chimeric construct #22 (mutated region AA 140-142) (human, UniProt P18627 23-266).
T8 construct: not shown: human IgG1 Fc, AA P101-K330
T8 chain: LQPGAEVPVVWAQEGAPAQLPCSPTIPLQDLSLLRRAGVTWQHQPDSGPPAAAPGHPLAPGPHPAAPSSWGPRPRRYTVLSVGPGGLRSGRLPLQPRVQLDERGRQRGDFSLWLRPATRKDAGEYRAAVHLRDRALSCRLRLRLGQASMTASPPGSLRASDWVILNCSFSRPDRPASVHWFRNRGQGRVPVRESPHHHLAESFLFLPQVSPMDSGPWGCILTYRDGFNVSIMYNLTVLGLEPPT
Nature of the assay: SPR, Fab over captured mutant LAG-3-Fc.

B1: Fab fragment of antibody 15532 (Fab, V domains shown, not shown: a dimerising Fc or GST)
VH: QVQLQQWGAGLLRPSETLSLTCAVYGESFSGYYWNWIRQPPGKGLEWIGEINHSGSTNYNPSLKSRVTISVDTSKTQFSLKLSSVTAADTAVYYCARGWDLLDWNDYWNEYWGQGTLVTVSS
VL: EIVLTQSPATLSLSPGERATLSCRASQSVSSYLAWYQQKPGQAPRLLIYDASNRATGIPARFSGSGSGTDFTLTISSLEPEDFAVYYCQQRSNWPLTFGGGTKVEIKR
notes: monomeric Fab made by GingisKHAN digestion of the IgG1
One may read the Kd as the concentration at which binding is half-saturated. By koff is commonly meant a measure of how fast the partners let go of each other. The low end stands for a long-lived complex, the high end for a short-lived complex. By kon is commonly meant the second-order rate constant of association. A higher kon goes with faster complex formation. In turn, B1 registered a Kd in assay [1] of 5.8 nM. In addition, the koff in assay [1] is 0.00065 s⁻¹. Further, the kon in assay [1] worked out at 110000 M⁻¹ s⁻¹. Besides, the “KD mutant/KD wild type” value in assay [2] is 2.2 fold; in assay [3] it was 2.7 fold; in assay [4] it was 3.4 fold; in assay [5], 2.7 fold; in assay [6] it was 3.9 fold; in assay [7] it was 1.5 fold. In addition, the “KD mutant/KD wild type” value in assay [8] is 1.3 fold.

B2: Fab fragment of antibody 15431 (Fab, V domains shown, not shown: a dimerising Fc or GST)
VH: QVQLQQSGPGLVKPSQTLSLTCAISGDSVSSNSAAWNWIRQSPSRGLEWLGRTYYRSKWYNDYAVSVKSRITINPDTSKNQFSLQLNSVTPEDTAVYYCARDDDWNDFDYWGQGTLVTVSS
VL: EIVLTQSPATLSLSPGERATLSCRASQSVSSYLAWYQQKPGQAPRLLIYDASNRATGIPARFSGSGSGTDFTLTISSLEPEDFAVYYCQQRSNWPLTFGGGTKVEIKR
notes: as for B1
B2 registered a Kd in assay [1] of 30 nM. In assay [1], this molecule had a koff of 0.002 s⁻¹. In assay [1], this molecule returned a kon of 66000 M⁻¹ s⁻¹. Further, the binding result in assay [2], in assay [3], in assay [4] and in assay [5] was “no binding (tested: 300 nM)” each time. In addition, the figures for the “KD mutant/KD wild type” value in assay [6], in assay [7] and in assay [8] were 0.4 fold, 0.4 fold and 0.6 fold, respectively.

B3: Fab fragment of antibody 15011 (Fab, V domains shown, not shown: a dimerising Fc or GST)
VH: EVQLLESGGGLVQPGGSLRLSCAASGFDFRSYAMMWVRQAPGKGLEWVGGINGEVGGSNTYYAPAVKGRATISRDNSKNTLYLQMNSLRAEDTAVYYCVKGAGACGICNDDIDAWGQGTLVTVSS
VL: SYELTQDPAVSVALGQTVRITCSGAGSYAGSYYYGWHQQKPGQAPVTVIYDNDKRPSNIPDRFSGSSSGNTASLTITGAQAEDEADYYCGSTNDNDDGGLFGSGTKVTVLG
notes: as for B1
For B3, the affinity in assay [1], expressed as Kd, was 4.3 nM. The molecule also yielded a koff in assay [1] of 0.00048 s⁻¹. In assay [1], the kon was 110000 M⁻¹ s⁻¹. Also, the “KD mutant/KD wild type” value in assay [2] stood at 0.5 fold; in assay [3], 0.5 fold; in assay [4] it was 0.5 fold; in assay [5] it was 0.5 fold; in assay [6], 0.7 fold; in assay [7], 0.6 fold. Besides, the “KD mutant/KD wild type” value in assay [8] stood at 0.5 fold.

B4: Fab fragment of antibody 15572 (Fab, V domains shown, not shown: a dimerising Fc or GST)
VH: QLQLQESGPGLVKPSETLSLTCTVSGDSISSSSYYWGWIRQPPGKGLEWIGSIFYSGNTYYNPSLKSRVTISVDTSKNQFSLKLSSVTAADTAVYYCAREDDFLTDYYGAFDIWGQGTMVTVSS
VL: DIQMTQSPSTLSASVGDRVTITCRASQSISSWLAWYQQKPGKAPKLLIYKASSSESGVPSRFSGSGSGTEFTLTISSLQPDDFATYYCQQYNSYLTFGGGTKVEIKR
notes: as for B1
Molecule B4 displayed a Kd in assay [1] of 27 nM. The same molecule returned a koff in assay [1] of 0.003 s⁻¹. The kon in assay [1] was determined as 110000 M⁻¹ s⁻¹. Also, the binding result in assay [2], in assay [3], in assay [4] and in assay [5] was “no binding (tested: 300 nM)” each time. The “KD mutant/KD wild type” value in assay [6] worked out at 1.1 fold; in assay [7] it was 0.5 fold; in assay [8], 0.8 fold.
